{"source": "paper PMC12772503", "parents": {"B1": {"name": "myc-Syd-N2 (Syd^1-529) R492 [Drosophila] / HA-Rab2^Q65L [Drosophila] (parent)", "chain 1": "MMDNDDALLNNGGPQSGAETVYGTEDNNMVMSEKNEQVVSIVQQLAGSIYQEFERMINRYDEDVVKNLMPLLVNVLECLDASYRINQEQDVEVELLREDNEQLVTQYEREKSARKQSEQKLLEAEDLAEQENKELATRLESVESIVRMLELKHKNSLEHASRLEEREADLKKEYNKLHERYTELFKNHVDYMERTKMLMGSTHSQMSTASERMDVSRARLNPVARSSGPVSYGFASLENSVMLDTETICSVGSQSDDSGPPSLQNELDNLSGTLERGAATDALQQQHHATSPQSPDSSPVVPNVPTNVGRSTTKKEQRSDNNLYQELSFQDNEESEENEIVTGSWVHPGEYASSANDNYFGMGKEVENLIMENNELLATKNALNIVKDDLIVKVDELTGEVEIVREELNAMQQSRTKLRQRISELEDELKKAKEQVKQQNTEQEENDVPLAQRKRFTRVEMAMVLMERNQYKERLMELQEAVRLTEILRASRTVDNLDRKSKQSIWKYFSNLFTPSNRPTERVADGLGG", "chain 2": "MSYAYLFKYIIIGDTGVGKSCLLLQFTDKRFQPVHDLTIGVEFGARMITIDGKQIKLQIWDTAGLEAFRSITRSYYRGAAGALLVYDITRRETFNHLTTWLEDARQHSNSNMVIMLIGNKSDLDSRREVKKEEGEAFAREHGLVFMETSARTAANVEEAFINTAKEIYEKIQEGVFDINNEANGIKIGQQHSPTNPSLPGAGGAAGAANSGCC"}}, "data": [{"variants_of": "B1", "assay": "Co-IP (anti-HA IP, anti-myc immunoblot quantification)", "settings": "with HA-Rab2^Q65L [Drosophila]; HEK cell lysates; single experiment 1 of 3 (solid line); P < 0.005 vs WT printed; parent: 17; read off a plot", "units": {"response": "a.u."}, "values": [{"variant": "chain 1 V482A R483A L484A T485A E486A I487A R489A S491A R492A", "response": 11}]}, {"variants_of": "B1", "assay": "Co-IP (anti-HA IP, anti-myc immunoblot quantification)", "settings": "with HA-Rab2^Q65L [Drosophila]; HEK cell lysates; single experiment 2 of 3 (upper dashed line); P < 0.005 vs WT printed; parent: 17; read off a plot", "units": {"response": "a.u."}, "values": [{"variant": "chain 1 V482A R483A L484A T485A E486A I487A R489A S491A R492A", "response": 6.8}]}, {"variants_of": "B1", "assay": "Co-IP (anti-HA IP, anti-myc immunoblot quantification)", "settings": "with HA-Rab2^Q65L [Drosophila]; HEK cell lysates; single experiment 3 of 3 (lower dashed line); P < 0.005 vs WT printed; parent: 17; read off a plot", "units": {"response": "a.u."}, "values": [{"variant": "chain 1 V482A R483A L484A T485A E486A I487A R489A S491A R492A", "response": 4.7}]}]}
